Laboratory results: article PMC2593702, “Purification, crystallization and X-ray structures of the two manganese superoxide dismutases from Caenorhabditis elegans” (Acta Crystallographica Section F, 2008)

Target: the molecule itself
Assay: SEC; gel-filtration chromatography of the pure proteins; Sephacryl S-200, 10 mM Tris-HCl pH 8.0, 0.15 M NaCl, 0.8 ml/min; results not shown

Protein	stoichiometry N
Caenorhabditis elegans manganese superoxide dismutase MnSOD-3 (enzyme, N-terminal methionine of the expression construct, retained in the purified protein by mass spectrometry; Superoxide dismutase [Mn]; Expressed without a histidine tag; Cloning is as in Hunter et al., 1997) MKHTLPDLPFDYADLEPVISHEIMQLHHQKHHATYVNNLNQIEEKLHEAVSKGNLKEAIALQPALKFNGGGHINHSIFWTNLAKDGGEPSKELMDTIKRDFGSLDNLQKRLSDITIAVQGSGWGWLGYCKKDKILKIATCANQDPLEGMVPLFGIDVWEHAYYLQYKNVRPDYVHAIWKIANWKNISERFANARQ	4
Caenorhabditis elegans manganese superoxide dismutase MnSOD-2 (enzyme, N-terminal methionine of the expression construct, retained in the purified protein by mass spectrometry; Superoxide dismutase [Mn]; Expressed without a histidine tag; Cloning is as in Hunter et al., 1997) MKHSLPDLPYDYADLEPVISHEIMQLHHQKHHATYVNNLNQIEEKLHEAVSKGNVKEAIALQPALKFNGGGHINHSIFWTNLAKDGGEPSAELLTAIKSDFGSLDNLQKQLSASTVAVQGSGWGWLGYCPKGKILKVATCANQDPLEATTGLVPLFGIDVWEHAYYLQYKNVRPDYVNAIWKIANWKNVSERFAKAQQ	4
